Measurements from the Human Domainome abundance scans (Beltran et al. 2025).
± gives the uncertainty stated by the source.

experiment: abundance fitness (aPCA) (normalised: wild type 0, dead -1); higher = more abundant; growth selection in yeast, the domain comes from the species named; conditions: Homo sapiens

Row | Substance | abundance fitness
1 | DnaJ homolog subfamily B member 1 A41T, P25685 | -0.055 ± 0.068
2 | DnaJ homolog subfamily B member 1 K44M, P25685 | -0.134 ± 0.068
3 | DnaJ homolog subfamily B member 1 I63H, P25685 | -0.311 ± 0.33
4 | DnaJ homolog subfamily B member 1 E62N, P25685 | -0.567 ± 0.28
5 | DnaJ homolog subfamily B member 1 P39W, P25685 | 0.026 ± 0.12
6 | DnaJ homolog subfamily B member 1 E18T, P25685 | -0.081 ± 0.15
7 | DnaJ homolog subfamily B member 1 E18N, P25685 | -0.045 ± 0.18
8 | DnaJ homolog subfamily B member 1 K60L, P25685 | -0.426 ± 0.052
9 | DnaJ homolog subfamily B member 1 F45A, P25685 | -0.21 ± 0.076
10 | DnaJ homolog subfamily B member 1 Y52D, P25685 | -0.3 ± 0.17
11 | DnaJ homolog subfamily B member 1 A12I, P25685 | -0.163 ± 0.11
12 | DnaJ homolog subfamily B member 1 D53P, P25685 | -0.709 ± 0.079
13 | DnaJ homolog subfamily B member 1 E19I, P25685 | -0.659 ± 0.12
14 | DnaJ homolog subfamily B member 1 Q7W, P25685 | -0.207 ± 0.15
15 | DnaJ homolog subfamily B member 1 E62S, P25685 | -0.212 ± 0.077
16 | DnaJ homolog subfamily B member 1 D65N, P25685 | -0.222 ± 0.19
17 | DnaJ homolog subfamily B member 1 I63Y, P25685 | -0.236 ± 0.12
18 | DnaJ homolog subfamily B member 1 L29T, P25685 | -0.131 ± 0.072
19 | DnaJ homolog subfamily B member 1 Q27W, P25685 | -0.064 ± 0.098
20 | DnaJ homolog subfamily B member 1 P39N, P25685 | 0.035 ± 0.12
21 | DnaJ homolog subfamily B member 1 E43Y, P25685 | 0.196 ± 0.32
22 | DnaJ homolog subfamily B member 1 D34K, P25685 | -0.046 ± 0.074
23 | DnaJ homolog subfamily B member 1 A41E, P25685 | -0.009 ± 0.11
24 | DnaJ homolog subfamily B member 1 E43P, P25685 | -0.177 ± 0.13
25 | DnaJ homolog subfamily B member 1 K37Y, P25685 | -0.277 ± 0.15
26 | DnaJ homolog subfamily B member 1 R25N, P25685 | -0.144 ± 0.29

Row | Substance | abundance fitness
27 | DnaJ homolog subfamily B member 1 E19H, P25685 | -0.363 ± 0.14
28 | DnaJ homolog subfamily B member 1 R13N, P25685 | -0.091 ± 0.11
29 | DnaJ homolog subfamily B member 1 R13F, P25685 | -0.15 ± 0.1
30 | DnaJ homolog subfamily B member 1 A28D, P25685 | -0.521 ± 0.21
31 | DnaJ homolog subfamily B member 1 R59L, P25685 | -0.186 ± 0.099
32 | DnaJ homolog subfamily B member 1 A28P, P25685 | -0.953 ± 0.16
33 | DnaJ homolog subfamily B member 1 Y5G, P25685 | -0.672 ± 0.092
34 | DnaJ homolog subfamily B member 1 E47M, P25685 | -0.186 ± 0.096
35 | DnaJ homolog subfamily B member 1 A51S, P25685 | -0.406 ± 0.08
36 | DnaJ homolog subfamily B member 1 P33Y, P25685 | -0.245 ± 0.11
37 | DnaJ homolog subfamily B member 1 T8V, P25685 | -0.106 ± 0.058
38 | DnaJ homolog subfamily B member 1 Y24K, P25685 | -0.358 ± 0.099
39 | DnaJ homolog subfamily B member 1 Y24D, P25685 | -0.654 ± 0.16
40 | DnaJ homolog subfamily B member 1 D65F, P25685 | -0.275 ± 0.18
41 | DnaJ homolog subfamily B member 1 N36T, P25685 | 0.092 ± 0.1
42 | DnaJ homolog subfamily B member 1 R26V, P25685 | 0.03 ± 0.15
43 | DnaJ homolog subfamily B member 1 F64A, P25685 | -0.361 ± 0.3
44 | DnaJ homolog subfamily B member 1 T8C, P25685 | -0.096 ± 0.094
45 | DnaJ homolog subfamily B member 1 A12D, P25685 | -0.38 ± 0.11
46 | DnaJ homolog subfamily B member 1 P58D, P25685 | -0.332 ± 0.14
47 | DnaJ homolog subfamily B member 1 Y6K, P25685 | -0.911 ± 0.15
48 | DnaJ homolog subfamily B member 1 K60Q, P25685 | -0.128 ± 0.085
49 | DnaJ homolog subfamily B member 1 Q27I, P25685 | -0.057 ± 0.12
50 | DnaJ homolog subfamily B member 1 P58S, P25685 | -0.112 ± 0.089
51 | DnaJ homolog subfamily B member 1 H32L, P25685 | -0.025 ± 0.082
52 | DnaJ homolog subfamily B member 1 S56R, P25685 | -0.226 ± 0.091

Row | Substance | abundance fitness
53 | DnaJ homolog subfamily B member 1 K21W, P25685 | -0.152 ± 0.072
54 | DnaJ homolog subfamily B member 1 K44E, P25685 | -0.322 ± 0.077
55 | DnaJ homolog subfamily B member 1 D17S, P25685 | -0.094 ± 0.073
56 | DnaJ homolog subfamily B member 1 R61L, P25685 | -0.527 ± 0.076
57 | DnaJ homolog subfamily B member 1 E42Q, P25685 | -0.157 ± 0.12
58 | DnaJ homolog subfamily B member 1 A12L, P25685 | -0.179 ± 0.068
59 | DnaJ homolog subfamily B member 1 Y5C, P25685 | -0.164 ± 0.18
60 | DnaJ homolog subfamily B member 1 A41F, P25685 | -0.128 ± 0.25
61 | DnaJ homolog subfamily B member 1 D34L, P25685 | -0.042 ± 0.066
62 | DnaJ homolog subfamily B member 1 F45M, P25685 | -0.305 ± 0.092
63 | DnaJ homolog subfamily B member 1 K37V, P25685 | -0.356 ± 0.083
64 | DnaJ homolog subfamily B member 1 P58W, P25685 | -0.236 ± 0.085
65 | DnaJ homolog subfamily B member 1 F45I, P25685 | -0.158 ± 0.07
66 | DnaJ homolog subfamily B member 1 H32R, P25685 | -0.057 ± 0.061
67 | DnaJ homolog subfamily B member 1 E38C, P25685 | -0.027 ± 0.11
68 | DnaJ homolog subfamily B member 1 L9P, P25685 | -0.726 ± 0.082
69 | DnaJ homolog subfamily B member 1 Y5Q, P25685 | -0.3 ± 0.15
70 | DnaJ homolog subfamily B member 1 D65V, P25685 | -0.262 ± 0.1
71 | DnaJ homolog subfamily B member 1 K60A, P25685 | -0.172 ± 0.093
72 | DnaJ homolog subfamily B member 1 I20N, P25685 | -1.02 ± 0.11
73 | DnaJ homolog subfamily B member 1 P33S, P25685 | 0.018 ± 0.083
74 | DnaJ homolog subfamily B member 1 Q7G, P25685 | -0.315 ± 0.21
75 | DnaJ homolog subfamily B member 1 I63K, P25685 | -0.019 ± 0.13
76 | DnaJ homolog subfamily B member 1 V54F, P25685 | 0.077 ± 0.21
77 | DnaJ homolog subfamily B member 1 K35G, P25685 | -0.25 ± 0.083
78 | DnaJ homolog subfamily B member 1 F64S, P25685 | -0.109 ± 0.23

Row | Substance | abundance fitness
79 | DnaJ homolog subfamily B member 1 L29D, P25685 | -0.089 ± 0.16
80 | DnaJ homolog subfamily B member 1 E19D, P25685 | -0.089 ± 0.092
81 | DnaJ homolog subfamily B member 1 L29M, P25685 | -0.234 ± 0.12
82 | DnaJ homolog subfamily B member 1 K21E, P25685 | -0.182 ± 0.1
83 | DnaJ homolog subfamily B member 1 A51R, P25685 | -0.84 ± 0.067
84 | DnaJ homolog subfamily B member 1 Y52L, P25685 | -0.39 ± 0.071
85 | DnaJ homolog subfamily B member 1 A28M, P25685 | -0.06 ± 0.088
86 | DnaJ homolog subfamily B member 1 E42Y, P25685 | -0.188 ± 0.1
87 | DnaJ homolog subfamily B member 1 R59A, P25685 | -0.051 ± 0.086
88 | DnaJ homolog subfamily B member 1 R59S, P25685 | -0.036 ± 0.081
89 | DnaJ homolog subfamily B member 1 D65E, P25685 | -0.152 ± 0.2
90 | DnaJ homolog subfamily B member 1 Y5M, P25685 | -0.179 ± 0.11
91 | DnaJ homolog subfamily B member 1 P39V, P25685 | 0.001 ± 0.12
92 | DnaJ homolog subfamily B member 1 E19K, P25685 | -0.396 ± 0.099
93 | DnaJ homolog subfamily B member 1 P33C, P25685 | -0.11 ± 0.1
94 | DnaJ homolog subfamily B member 1 L11N, P25685 | -0.712 ± 0.12
95 | DnaJ homolog subfamily B member 1 A49Y, P25685 | -0.277 ± 0.18
96 | DnaJ homolog subfamily B member 1 R59E, P25685 | 0.026 ± 0.099
97 | DnaJ homolog subfamily B member 1 G10N, P25685 | -0.333 ± 0.25
98 | DnaJ homolog subfamily B member 1 L29W, P25685 | -0.111 ± 0.068
99 | DnaJ homolog subfamily B member 1 Y6T, P25685 | -0.557 ± 0.11
100 | DnaJ homolog subfamily B member 1 R61S, P25685 | -0.528 ± 0.068
101 | DnaJ homolog subfamily B member 1 P39D, P25685 | -0.339 ± 0.27
102 | DnaJ homolog subfamily B member 1 V54N, P25685 | -0.084 ± 0.11
103 | DnaJ homolog subfamily B member 1 G10S, P25685 | -0.163 ± 0.061
